Test results from the supplement of paper PMC10567573.

B1: ZNF263 (parent)
chain: EKPYKCPECGEIFAHSSNLLRHQR

Variants of: B1
Test: protein stability index of a GFP-peptide fusion (GPS, HEK-293T) (PSI 1-6); higher = more stable
Conditions: c terminus: a fixed tail appended
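Further: lentivirally expressed fusions sorted by FACS into six bins by GFP to DsRed ratio, PSI derived from sequencing read proportions per bin multiplied by bin number.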

With YKPYKCPECGEIFAHSSNLLRHQR as the variant, how does the protein stability index read?
The protein stability index was 2.06.

Which protein stability index does the source give for GKPYKCPECGEIFAHSSNLLRHQR here?
Its protein stability index is 1.99.

Which protein stability index does the source give for FKPYKCPECGEIFAHSSNLLRHQR here?
The protein stability index was 2.13.

Which protein stability index does the source give for WKPYKCPECGEIFAHSSNLLRHQR here?
The protein stability index was 1.76.

For LKPYKCPECGEIFAHSSNLLRHQR, which protein stability index is on record?
The protein stability index was 2.53.

With AKPYKCPECGEIFAHSSNLLRHQR as the variant, how does the protein stability index read?
Its protein stability index is 1.55.

For VKPYKCPECGEIFAHSSNLLRHQR, which protein stability index is on record?
Its protein stability index is 2.45.

For NKPYKCPECGEIFAHSSNLLRHQR, which protein stability index is on record?
Its protein stability index is 2.31.

For HKPYKCPECGEIFAHSSNLLRHQR, which protein stability index is on record?
The protein stability index was 2.75.

With QKPYKCPECGEIFAHSSNLLRHQR as the variant, how does the protein stability index read?
The protein stability index was 3.43.

With EKPYKLPECGEIFAHSSNLLRHQR as the variant, how does the protein stability index read?
Its protein stability index is 3.19.

With EKPYKIPECGEIFAHSSNLLRHQR as the variant, how does the protein stability index read?
The protein stability index was 3.23.

With EKPYKAPECGEIFAHSSNLLRHQR as the variant, how does the protein stability index read?
The protein stability index was 3.37.

Which protein stability index does the source give for EKPYKDPECGEIFAHSSNLLRHQR here?
The protein stability index was 3.49.

For EKPYKVPECGEIFAHSSNLLRHQR, which protein stability index is on record?
Its protein stability index is 3.35.

Which protein stability index does the source give for EKPYKQPECGEIFAHSSNLLRHQR here?
The protein stability index was 3.6.

With EKPYKKPECGEIFAHSSNLLRHQR as the variant, how does the protein stability index read?
The protein stability index was 3.03.

For EKPYKPPECGEIFAHSSNLLRHQR, which protein stability index is on record?
Its protein stability index is 3.76.

With EKPYKEPECGEIFAHSSNLLRHQR as the variant, how does the protein stability index read?
The protein stability index was 3.76.

For EKPYKFPECGEIFAHSSNLLRHQR, which protein stability index is on record?
The protein stability index was 3.46.

With EKPYKWPECGEIFAHSSNLLRHQR as the variant, how does the protein stability index read?
The protein stability index was 2.47.

For EKPYKNPECGEIFAHSSNLLRHQR, which protein stability index is on record?
Its protein stability index is 3.74.

Which protein stability index does the source give for EKPYKSPECGEIFAHSSNLLRHQR here?
Its protein stability index is 2.88.

With EKPYKTPECGEIFAHSSNLLRHQR as the variant, how does the protein stability index read?
The protein stability index was 3.45.

Which protein stability index does the source give for EKPYKHPECGEIFAHSSNLLRHQR here?
Its protein stability index is 2.71.

For EKPYKYPECGEIFAHSSNLLRHQR, which protein stability index is on record?
The protein stability index was 3.05.

With EKPYKRPECGEIFAHSSNLLRHQR as the variant, how does the protein stability index read?
The protein stability index was 3.08.

Which protein stability index does the source give for EKPYKCAECGEIFAHSSNLLRHQR here?
Its protein stability index is 2.24.

With EKPRKCPECGEIFAHSSNLLRHQR as the variant, how does the protein stability index read?
Its protein stability index is 2.48.

Which protein stability index does the source give for EKPPKCPECGEIFAHSSNLLRHQR here?
Its protein stability index is 2.12.

Which protein stability index does the source give for EKPVKCPECGEIFAHSSNLLRHQR here?
The protein stability index was 3.51.

For EKPGKCPECGEIFAHSSNLLRHQR, which protein stability index is on record?
Its protein stability index is 2.85.

With EKPQKCPECGEIFAHSSNLLRHQR as the variant, how does the protein stability index read?
Its protein stability index is 3.06.

With EKPCKCPECGEIFAHSSNLLRHQR as the variant, how does the protein stability index read?
Its protein stability index is 2.48.

For EKPFKCPECGEIFAHSSNLLRHQR, which protein stability index is on record?
The protein stability index was 2.15.

Which protein stability index does the source give for EKPKKCPECGEIFAHSSNLLRHQR here?
Its protein stability index is 2.73.

With EKPSKCPECGEIFAHSSNLLRHQR as the variant, how does the protein stability index read?
The protein stability index was 2.52.

Which protein stability index does the source give for EKPEKCPECGEIFAHSSNLLRHQR here?
Its protein stability index is 2.99.

Which protein stability index does the source give for EKPTKCPECGEIFAHSSNLLRHQR here?
The protein stability index was 2.91.

Which protein stability index does the source give for EKPNKCPECGEIFAHSSNLLRHQR here?
Its protein stability index is 2.45.

With EKPIKCPECGEIFAHSSNLLRHQR as the variant, how does the protein stability index read?
The protein stability index was 2.76.

For EKPWKCPECGEIFAHSSNLLRHQR, which protein stability index is on record?
Its protein stability index is 2.29.

Which protein stability index does the source give for EKPMKCPECGEIFAHSSNLLRHQR here?
The protein stability index was 1.84.

For EKPLKCPECGEIFAHSSNLLRHQR, which protein stability index is on record?
Its protein stability index is 2.47.

With ERPYKCPECGEIFAHSSNLLRHQR as the variant, how does the protein stability index read?
Its protein stability index is 2.64.

With EWPYKCPECGEIFAHSSNLLRHQR as the variant, how does the protein stability index read?
Its protein stability index is 2.32.

For EQPYKCPECGEIFAHSSNLLRHQR, which protein stability index is on record?
Its protein stability index is 2.89.

Which protein stability index does the source give for EDPYKCPECGEIFAHSSNLLRHQR here?
Its protein stability index is 3.24.

Which protein stability index does the source give for EFPYKCPECGEIFAHSSNLLRHQR here?
The protein stability index was 3.99.

With EVPYKCPECGEIFAHSSNLLRHQR as the variant, how does the protein stability index read?
Its protein stability index is 3.

For EEPYKCPECGEIFAHSSNLLRHQR, which protein stability index is on record?
The protein stability index was 3.09.

Which protein stability index does the source give for ETPYKCPECGEIFAHSSNLLRHQR here?
The protein stability index was 3.05.

Which protein stability index does the source give for EHPYKCPECGEIFAHSSNLLRHQR here?
Its protein stability index is 3.36.

For EPPYKCPECGEIFAHSSNLLRHQR, which protein stability index is on record?
Its protein stability index is 3.37.

Which protein stability index does the source give for EMPYKCPECGEIFAHSSNLLRHQR here?
The protein stability index was 2.59.

With ECPYKCPECGEIFAHSSNLLRHQR as the variant, how does the protein stability index read?
Its protein stability index is 3.25.

With EYPYKCPECGEIFAHSSNLLRHQR as the variant, how does the protein stability index read?
The protein stability index was 3.34.

Which protein stability index does the source give for EIPYKCPECGEIFAHSSNLLRHQR here?
The protein stability index was 1.68.

Which protein stability index does the source give for EKPYVCPECGEIFAHSSNLLRHQR here?
Its protein stability index is 2.62.

For EKPYFCPECGEIFAHSSNLLRHQR, which protein stability index is on record?
The protein stability index was 2.66.

For EKPYTCPECGEIFAHSSNLLRHQR, which protein stability index is on record?
The protein stability index was 3.41.

For EKPYWCPECGEIFAHSSNLLRHQR, which protein stability index is on record?
The protein stability index was 2.46.

With EKPYLCPECGEIFAHSSNLLRHQR as the variant, how does the protein stability index read?
The protein stability index was 2.39.

Which protein stability index does the source give for EKPYECPECGEIFAHSSNLLRHQR here?
The protein stability index was 3.02.

Which protein stability index does the source give for EKPYGCPECGEIFAHSSNLLRHQR here?
The protein stability index was 2.31.

Which protein stability index does the source give for EKPYPCPECGEIFAHSSNLLRHQR here?
Its protein stability index is 2.55.

With EKPYHCPECGEIFAHSSNLLRHQR as the variant, how does the protein stability index read?
The protein stability index was 2.38.

Which protein stability index does the source give for EKPYSCPECGEIFAHSSNLLRHQR here?
The protein stability index was 2.64.

With EKPYNCPECGEIFAHSSNLLRHQR as the variant, how does the protein stability index read?
The protein stability index was 2.5.

Which protein stability index does the source give for EKPYYCPECGEIFAHSSNLLRHQR here?
Its protein stability index is 2.2.

For EKPYICPECGEIFAHSSNLLRHQR, which protein stability index is on record?
Its protein stability index is 3.39.

Which protein stability index does the source give for EKPYRCPECGEIFAHSSNLLRHQR here?
The protein stability index was 2.61.

For EKPYCCPECGEIFAHSSNLLRHQR, which protein stability index is on record?
Its protein stability index is 1.52.

Which protein stability index does the source give for EKPYQCPECGEIFAHSSNLLRHQR here?
Its protein stability index is 3.12.

With EKPYDCPECGEIFAHSSNLLRHQR as the variant, how does the protein stability index read?
Its protein stability index is 2.24.

Which protein stability index does the source give for EKPYACPECGEIFAHSSNLLRHQR here?
The protein stability index was 2.91.

Which protein stability index does the source give for EKWYKCPECGEIFAHSSNLLRHQR here?
The protein stability index was 2.83.

With EKQYKCPECGEIFAHSSNLLRHQR as the variant, how does the protein stability index read?
Its protein stability index is 1.78.

For EKFYKCPECGEIFAHSSNLLRHQR, which protein stability index is on record?
The protein stability index was 2.69.

Which protein stability index does the source give for EKDYKCPECGEIFAHSSNLLRHQR here?
Its protein stability index is 3.11.

Which protein stability index does the source give for EKAYKCPECGEIFAHSSNLLRHQR here?
The protein stability index was 2.29.

Which protein stability index does the source give for EKEYKCPECGEIFAHSSNLLRHQR here?
Its protein stability index is 2.91.

Which protein stability index does the source give for EKHYKCPECGEIFAHSSNLLRHQR here?
The protein stability index was 1.88.

Which protein stability index does the source give for EKMYKCPECGEIFAHSSNLLRHQR here?
The protein stability index was 2.78.

With EKNYKCPECGEIFAHSSNLLRHQR as the variant, how does the protein stability index read?
Its protein stability index is 1.39.

With EKSYKCPECGEIFAHSSNLLRHQR as the variant, how does the protein stability index read?
The protein stability index was 2.09.

Which protein stability index does the source give for EKIYKCPECGEIFAHSSNLLRHQR here?
Its protein stability index is 1.82.

With EKVYKCPECGEIFAHSSNLLRHQR as the variant, how does the protein stability index read?
Its protein stability index is 2.13.

With EKLYKCPECGEIFAHSSNLLRHQR as the variant, how does the protein stability index read?
Its protein stability index is 2.57.

Which protein stability index does the source give for EKKYKCPECGEIFAHSSNLLRHQR here?
Its protein stability index is 1.52.

With EKTYKCPECGEIFAHSSNLLRHQR as the variant, how does the protein stability index read?
Its protein stability index is 2.85.

With EKCYKCPECGEIFAHSSNLLRHQR as the variant, how does the protein stability index read?
The protein stability index was 2.1.

Which protein stability index does the source give for EKRYKCPECGEIFAHSSNLLRHQR here?
The protein stability index was 1.89.

With EKYYKCPECGEIFAHSSNLLRHQR as the variant, how does the protein stability index read?
The protein stability index was 3.04.
